In patent US20240199761A1 (AstraZeneca / MedImmune, published 2024):
Substitutions are numbered along the chain they refer to.

Columns and labels:
recombinant human PAD2 [1] = target: recombinant human PAD2 (human, UniProt Q9Y2J8 1-665); assay: cell-based or functional assay
recombinant mouse PAD2 = target: T1, recombinant mouse PAD2 (mouse, UniProt Q08642 1-673); assay: ratio of SPR KDs, mouse PAD2 against human PAD2; antibody captured on C1-Protein G', PAD flowed over
T1 construct: Recombinant and tagged

huFcRn = target: T2, huFcRn (human, UniProt P55899 24-297; P61769 21-119, limits assumed); assay: huFcRn affinity chromatography, pH gradient elution
T2 construct: also called human neonatal Fc receptor

[2] = target: T3, cynomolgus PAD2, recombinant, tags at the N-terminus (cynomolgus, UniProt G7NUR0 1-665, enzymatically biotinylated on an Avi-tag where captured on streptavidin); assay: SPR; antibody on C1-Protein G', PAD2 flowed over
T3 construct: also called Cyno PAD2; not shown: N-terminal tags incl; Avi-tag

[3] = target: T4, human PAD2, recombinant, tags at the N-terminus (human, UniProt Q9Y2J8 1-665, enzymatically biotinylated on an Avi-tag where captured on streptavidin); assay: SPR; antibody on C1-Protein G', PAD2 flowed over
T4 construct: not shown: N-terminal tags incl; Avi-tag

[4] = target: T5, mouse PAD2, recombinant, tags at the N-terminus (mouse, UniProt Q08642 1-673, enzymatically biotinylated on an Avi-tag where captured on streptavidin); assay: SPR; antibody on C1-Protein G', PAD2 flowed over
T5 construct: not shown: N-terminal tags incl; Avi-tag

[5] = target: T3, cynomolgus PAD2, recombinant, tags at …; assay: SPR; antibody on C1-Protein G', PAD2 flowed over; remark: listed apart in the source
[6] = target: T4, human PAD2, recombinant, tags at the …; assay: SPR; antibody on C1-Protein G', PAD2 flowed over; remark: listed apart in the source
[7] = target: T5, mouse PAD2, recombinant, tags at the …; assay: SPR; antibody on C1-Protein G', PAD2 flowed over; remark: listed apart in the source
recombinant human PAD2 [8] = target: recombinant human PAD2 (human, UniProt Q9Y2J8 1-665, enzymatically biotinylated on an Avi-tag (when captured on the SPR chip)); assay: cell-based or functional assay
[9] = target: T3, cynomolgus PAD2, recombinant, tags at …; assay: SPR; antibody captured on a surface, PAD2 flowed over
[10] = target: T4, human PAD2, recombinant, tags at the …; assay: as above
[11] = target: T5, mouse PAD2, recombinant, tags at the …; assay: as above
[12] = target: T6, cynomolgus PAD2 haplotype N55D, T63A, N82S (9.4%) (cynomolgus, UniProt G7NUR0 1-665); assay: SPR; antibody captured on C1-Protein G', PAD2 flowed over
T6 chain: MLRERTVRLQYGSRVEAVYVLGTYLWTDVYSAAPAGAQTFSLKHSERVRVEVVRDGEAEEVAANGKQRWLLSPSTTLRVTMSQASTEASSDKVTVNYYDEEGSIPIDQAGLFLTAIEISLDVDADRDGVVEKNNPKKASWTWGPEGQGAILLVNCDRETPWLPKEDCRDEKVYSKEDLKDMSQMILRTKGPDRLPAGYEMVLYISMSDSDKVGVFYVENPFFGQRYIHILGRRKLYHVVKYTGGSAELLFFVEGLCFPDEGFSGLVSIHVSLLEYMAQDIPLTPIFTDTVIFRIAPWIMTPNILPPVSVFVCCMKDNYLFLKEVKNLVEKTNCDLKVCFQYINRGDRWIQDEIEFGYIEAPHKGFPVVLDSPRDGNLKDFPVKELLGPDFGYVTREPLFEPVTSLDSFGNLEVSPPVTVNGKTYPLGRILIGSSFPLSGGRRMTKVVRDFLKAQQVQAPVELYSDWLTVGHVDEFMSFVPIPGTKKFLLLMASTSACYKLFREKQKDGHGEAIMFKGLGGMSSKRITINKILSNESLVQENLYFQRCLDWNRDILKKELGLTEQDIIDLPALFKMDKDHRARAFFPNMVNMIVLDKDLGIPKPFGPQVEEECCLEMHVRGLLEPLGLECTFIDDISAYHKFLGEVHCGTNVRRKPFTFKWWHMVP

[13] = target: T7, cynomolgus PAD2 haplotype N55D, N82S (37.5%) (cynomolgus, UniProt G7NUR0 1-665); assay: as above
T7 chain: T6 chain with A63T

[14] = target: T3, cynomolgus PAD2, recombinant, tags at …; assay: SPR; biotinylated antibody on C1-streptavidin, PAD2 flowed over
[15] = target: T4, human PAD2, recombinant, tags at the …; assay: as above
[16] = target: T3, cynomolgus PAD2, recombinant, tags at …; assay: as above; remark: listed apart in the source
[17] = target: T4, human PAD2, recombinant, tags at the …; assay: as above; remark: listed apart in the source

B1: Clone 07 (Bis3, TM; Fab anti-PAD4, scFv anti-PAD2) (bispecific antibody, human IgG1, lambda)
heavy: not shown
light: QSALTQPRSVSGSPGQSVTISCTGTSGDVGRYSHVSWYQQHPGKAPKLIIYNVYERPSGVPDRFSGSKSGNTASLTISGLQAEDEADYYCSSHSRSSTPVLFGGGTKLTVLGQPKAAPSVTLFPPSSEELQANKATLVCLISDFYPGAVTVAWKADSSPVKAGVETTTPSKQSNNKYAASSYLSLTPEQWKSHRSYSCQVTHEGSTVEKTVAPTECS
notes: Bivalent bispecific IgG-HC-scFv; also called Clone 7*; PAD240007
Potency (IC50), Histone-H3 assay (recombinant human PAD2 [1]): 0.238 nM | fold difference in KD, mouse/human (recombinant mouse PAD2): 1 fold | HPLC retention (huFcRn): 17.8 min | Relative retention (huFcRn): -0.081

B2: Clone 07, Bis3 anti-PAD4 Fab / anti-PAD2 scFv, Fc TM (bispecific antibody, human IgG1, lambda)
heavy: not shown
light: B1 light
notes: Bivalent for PAD2 and for PAD4; also called Clone 7*; PAD240007
Kd [2]: 0.0219 nM | Kd [3]: 0.0161 nM | Kd [4]: 0.0162 nM | Kd [5]: 0.0219 nM | koff [5]: 5.46e-05 s⁻¹ | kon [5]: 2.61e+06 M⁻¹ s⁻¹ | Kd [6]: 0.0161 nM | koff [6]: 3.21e-05 s⁻¹ | kon [6]: 2e+06 M⁻¹ s⁻¹ | Kd [7]: 0.0162 nM | koff [7]: 4.45e-05 s⁻¹ | kon [7]: 2.76e+06 M⁻¹ s⁻¹

B3: Clone 22 (IgG) (141LO0035 hIgG1 pgl-4) (antibody, V domains shown)
VH: not shown
VL: SYVLTQPPSVSVSPGQTASITCSGDKVGDKYVSWYQQKPGQSPVLVIYQDSQRPSGIPERFSGSNSGNTATLTISGTQAMDEADYYCQTWAPDVLLFGSGTKVTVL
notes: also called PAD2 IgG
Potency (IC50), Histone-H3 assay (recombinant human PAD2 [1]): 0.138 nM | fold difference in KD, mouse/human (recombinant mouse PAD2): 1.2 fold

B4: Clone 22 (141LO0035 hIgG1 pgl-4), anti-PAD2, as IgG (antibody, V domains shown)
VH: not shown
VL: B3 VL
potency (IC50), Histone-H3 citrullination ELISA, recombinant PAD2 (recombinant human PAD2 [8]): < 1 nM

B5: anti-PAD2 Clone 22 (141LO0035 hIgG1 pgl-4), IgG (antibody, V domains shown)
VH: not shown
VL: B3 VL
notes: also called Clone 22 (IgG)
Kd [9]: 0.011 nM | koff [9]: 3.33e-05 s⁻¹ | kon [9]: 3.06e+06 M⁻¹ s⁻¹ | Kd [10]: 0.0039 nM | koff [10]: 1.71e-05 s⁻¹ | kon [10]: 4.36e+06 M⁻¹ s⁻¹ | Kd [11]: 0.00459 nM | koff [11]: 2.24e-05 s⁻¹ | kon [11]: 4.93e+06 M⁻¹ s⁻¹ | Kd [2]: 0.011 nM | Kd [3]: 0.0039 nM | Kd [4]: 0.00459 nM

B6: Clone 08 (Bis3, TM; Fab anti-PAD2, scFv anti-PAD4) (bispecific antibody, human IgG1, lambda)
heavy: not shown
light: SYVLTQPPSVSVSPGQTASITCSGDKVGDKYVSWYQQKPGQSPVLVIYQDSQRPSGIPERFSGSNSGNTATLTISGTQAMDEADYYCQTWAPDVLLFGSGTKVTVLGQPKAAPSVTLFPPSSEELQANKATLVCLISDFYPGAVTVAWKADSSPVKAGVETTTPSKQSNNKYAASSYLSLTPEQWKSHRSYSCQVTHEGSTVEKTVAPTECS
notes: Bivalent bispecific IgG-HC-scFv; also called Clone 8*; Clone 8^#
Kd [12]: 0.0434 nM | koff [12]: 6.76e-05 s⁻¹ | kon [12]: 1.58e+06 M⁻¹ s⁻¹ | Kd [13]: 0.0064 nM | koff [13]: 2.65e-05 s⁻¹ | kon [13]: 4.23e+06 M⁻¹ s⁻¹ | Potency (IC50), Histone-H3 assay (recombinant human PAD2 [1]): 0.094 nM | fold difference in KD, mouse/human (recombinant mouse PAD2): 1.1 fold | HPLC retention (huFcRn): 17 min | Relative retention (huFcRn): -0.207

B7: Clone 08, Bis3 anti-PAD2 Fab / anti-PAD4 scFv, Fc TM (bispecific antibody, human IgG1, lambda)
heavy: not shown
light: B6 light
notes: Bivalent for PAD2 and for PAD4; In the rows marked ^# the antibody was chemically biotinylated; also called Clone 8*; Clone 8^#
Kd [14]: 0.0121 nM | koff [14]: 0.0001 s⁻¹ | kon [14]: 9.48e+06 M⁻¹ s⁻¹ | Kd [15]: 0.00751 nM | koff [15]: 4.74e-05 s⁻¹ | kon [15]: 5.88e+06 M⁻¹ s⁻¹ | Kd [16]: 0.0121 nM | Kd [17]: 0.00751 nM | Kd [2]: 0.0167 nM | Kd [3]: 0.00665 nM | Kd [4]: 0.00719 nM | Kd [5]: 0.0167 nM | koff [5]: 4.52e-05 s⁻¹ | kon [5]: 2.74e+06 M⁻¹ s⁻¹ | Kd [6]: 0.00665 nM | koff [6]: 2.97e-05 s⁻¹ | kon [6]: 4.48e+06 M⁻¹ s⁻¹ | Kd [7]: 0.00719 nM | koff [7]: 3.31e-05 s⁻¹ | kon [7]: 4.65e+06 M⁻¹ s⁻¹
